No end group written: not given here.
Tests used:
human CD123-Fc = target: T1, human CD123-Fc (human, UniProt P26951 19-305, limits assumed); assay: SPR, Biacore X100, human CD123-Fc on CM5 chip, 1:1 model; KD CD123 (first number of the cell)
T1 construct: Coupled to a CM5 sensor chip; also called soluble recombinant CD123; not shown: Fc part
T1 sequence (looked up): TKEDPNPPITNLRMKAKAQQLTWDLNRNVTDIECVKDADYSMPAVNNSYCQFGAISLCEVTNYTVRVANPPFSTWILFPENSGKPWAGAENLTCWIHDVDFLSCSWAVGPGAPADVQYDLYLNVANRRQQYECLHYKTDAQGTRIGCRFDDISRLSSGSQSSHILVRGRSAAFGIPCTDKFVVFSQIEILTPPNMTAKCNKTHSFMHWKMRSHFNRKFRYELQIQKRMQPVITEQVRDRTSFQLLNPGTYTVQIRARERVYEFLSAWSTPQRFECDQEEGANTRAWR
Description: Binding of different variants of the targeting module according to the invention was analyzed by SPR measurements using human CD123-Fc coupled to a CM5 sensor chip on a Biacore X100 device (FIG. 2). Targeting modules were purified monomer except for the targeting module according to SEQ ID No. 8. […] For data fitting and KD calculation a 1:1 binding model was applied.

[1] = target: T2, La epitope 5B9 (SEQ ID No. 28) fused to human Fc domain (human, also: fused to human Fc domain, order, isotype, linker not given here); assay: SPR, Biacore X100, La epitope 5B9-human Fc on CM5 chip; KD 5B9 (second number of the cell)
T2 construct: Coupled to a CM5 sensor chip; not shown: human Fc domain
T2 chain: KPLPEVTDEY
Description: Furthermore, binding of different variants of the targeting module according to the invention was analyzed using the La epitope 5B9 (SEQ ID No. 28) fused to human Fc domain which was coupled to a CM5 sensor chip on a Biacore X100 device (FIG. 3). The targeting modules were purified monomers. The targeting modules were concentrated between 2.47 to 200 nM and measured in technical duplicates. For data fitting and KD calculation a two-state-reaction binding model was applied.

[2] = target: T3, CD123 on CD123 positive AML cells (Oci-AML3, Molm-13, MV4-11, primary AML cells) (human, UniProt P26951 19-378); assay: cellular binding assay per table caption, Oci-AML3 cells
T3 construct: whole, on cells; Endogenous CD123 on human AML cell lines; also called target antigen CD123

[3] = target: T3, CD123 on CD123 positive AML cells …; assay: cellular binding assay per table caption, Molm-13 cells
[4] = target: T3, CD123 on CD123 positive AML cells …; assay: flow cytometry on Molm-13 cells, anti-His-PE detection. Half-maximal binding from a four-parameter fit of gMFI. Unit taken from the concentration axis [M]
Description: Cellular binding of CD123-binding targeting modules (TM) was tested on CD123 positive target cell lines Oci-AML3 and Molm-13: A) SEQ ID No. 5 to Oci-AML3, B) SEQ ID No. 9 to Oci-AML3, C) SEQ ID No. 4 to Molm-13 and D) SEQ ID No. 6 to Molm-13. The affinity of TMs was analyzed by flow cytometry. The TMs were titrated on an AML cell lines and then detected by a mouse anti-His-tag antibody conjugated to phycoerythrin.
Different concentrations of R-TM123 were incubated with cells, washed and quantified. A dose-response curve was obtained when the geometric mean fluorescence (MFI) was plotted against the TM concentration.

B1: targeting module according to SEQ ID No. 4 (bispecific antibody)
chain: GQVQLVQSGAEVKKPGASVKMSCKASGYTFTDYYMKWVKQAPGQGLEWIGDIIPSNGATFYNQKFQGRATLTVDTSTSTAYMELSSLRSEDTAVYYCTRSHLLRASWFAYWGQGTLVTVSSASGGGGSGGGGSGGGGSDIVMTQSPDSLAVSLGERATINCKSSQSLLNSGNQKNYLTWYLQKPGQPPKLLIYWASTRESGVPDRFSGSGSGTDFTLTISSVQAEDVAVYYCQNDYSYPYTFGGGTKLEIKAAARGDIVMTQSPDSLAVSLGERVTMNCKSSQSLLNSRTPKNYLAWYQQKPGQSPKLLIYWASTRKSGVPDRFSGSGSGTDFTLTISSVQAEDVAVYYCKQSYNLLTFGGGTKLEIKGGGGSGGGGSGASAAGGGGSGGGGSQVQLVESGAEVVKPGASVKLSCKASGYAFTHYYIYWIKQAPGQGLEWIGGVNPSNGGTHFNEKFKSRATLTVDTSISTAYMELSRLRSDDTAVYYCTRSEYDYGLGFAYWGQGTLVTVSSGGGGSHHHHHHHH
notes: also called huCD123_2 + rs5B9-VLVH
B1 showed a Kd (human CD123-Fc) of 5.2 nM, a Kd [1] of 3.4 nM and an EC50 [2] of 0.026 nM. For the same binder, the EC50 [3] was 0.0071 nM.

B2: targeting module according to SEQ ID No. 6 (bispecific antibody)
chain: EVQLQQSGPELVKPGASVKMSCKASGYTFTDYYMKWVKQSHGKSLEWIGDIIPSNGATFYNQKFKGKATLTVDRSSSTAYMHLNSLTSEDSAVYYCTRSHLLRASWFAYWGQGTLVTVSAASGGGGSGGGGSGGGGSDFVMTQSPSSLTVTAGEKVTMSCKSSQSLLNSGNQKNYLTWYLQKPGQPPKLLIYWASTRESGVPDRFTGSGSGTDFTLTISSVQAEDLAVYYCQNDYSYPYTFGGGTKLEIKAAARGDIVMTQSPDSLAVSLGERVTMNCKSSQSLLNSRTPKNYLAWYQQKPGQSPKLLIYWASTRKSGVPDRFSGSGSGTDFTLTISSVQAEDVAVYYCKQSYNLLTFGGGTKLEIKGGGGSGGGGSGASAAGGGGSGGGGSQVQLVESGAEVVKPGASVKLSCKASGYAFTHYYIYWIKQAPGQGLEWIGGVNPSNGGTHFNEKFKSRATLTVDTSISTAYMELSRLRSDDTAVYYCTRSEYDYGLGFAYWGQGTLVTVSSGGGGSHHHHHHHH
notes: also called muCD123 + rs5B9-VL-VH
In the case of B2, the Kd (human CD123-Fc) is reported as 0.044 nM, the Kd [1] is reported as 2.1 nM and the EC50 [2] is reported as 0.0062 nM. It also gave a Kd [4] of 7.69 nM and an EC50 [3] of 0.0017 nM.

Reference: patent US20250269025A1 (AVENCELL THERAPEUTICS, published 2025)
